# Experiments:
# [1] = target: T1, IL-2 receptor βγ complex (IL-2Rβ and IL-2Rγ subunits) (Homo sapiens, UniProt P14784+P31785); assay: PathHunter IL-2 Cytokine Receptor assay, agonist mode, βγ cell line; assay type: cell-based; conditions: ratio of the EC50 values
# T1 construct: host or cells: recombinant human U2OS cell line (PathHunter)
# T1 sequence (P14784 27-551): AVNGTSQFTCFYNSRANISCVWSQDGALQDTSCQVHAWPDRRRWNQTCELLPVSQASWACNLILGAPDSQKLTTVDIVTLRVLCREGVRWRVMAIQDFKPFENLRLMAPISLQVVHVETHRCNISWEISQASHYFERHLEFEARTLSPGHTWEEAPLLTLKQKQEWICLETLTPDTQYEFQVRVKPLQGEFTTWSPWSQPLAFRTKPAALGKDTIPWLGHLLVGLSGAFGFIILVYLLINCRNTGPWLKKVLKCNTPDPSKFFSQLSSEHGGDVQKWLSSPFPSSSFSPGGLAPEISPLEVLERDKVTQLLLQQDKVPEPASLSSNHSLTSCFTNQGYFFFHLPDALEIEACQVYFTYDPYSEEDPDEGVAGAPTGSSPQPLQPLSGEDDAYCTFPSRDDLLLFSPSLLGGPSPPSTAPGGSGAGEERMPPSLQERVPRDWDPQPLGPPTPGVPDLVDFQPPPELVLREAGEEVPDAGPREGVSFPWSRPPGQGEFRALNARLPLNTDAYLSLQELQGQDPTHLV
# T1 sequence (P31785 23-369): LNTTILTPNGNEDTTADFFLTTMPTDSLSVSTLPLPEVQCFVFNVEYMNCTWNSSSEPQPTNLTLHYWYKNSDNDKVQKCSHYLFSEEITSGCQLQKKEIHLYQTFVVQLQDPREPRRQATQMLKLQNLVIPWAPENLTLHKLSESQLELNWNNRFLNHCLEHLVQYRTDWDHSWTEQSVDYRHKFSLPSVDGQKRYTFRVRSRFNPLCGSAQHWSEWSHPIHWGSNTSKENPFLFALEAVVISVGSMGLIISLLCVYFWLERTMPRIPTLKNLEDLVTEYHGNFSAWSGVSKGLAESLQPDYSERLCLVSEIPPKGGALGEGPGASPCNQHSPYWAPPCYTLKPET
# Procedure: PathHunter cell lines were expanded from freezer stocks according to standard procedures. Cells were seeded in a total volume of 20 μL into white walled, 384-well microplates and incubated for the appropriate time prior to testing.
# For agonist determination, cells were incubated with sample to induce response. Intermediate dilution of sample stocks was performed to generate 5× sample in assay buffer. About 5 μL of 5× sample was added to cells and incubated at 37° C. for 6 to 16 hours depending on the assay. Vehicle concentration was 1%.
# Assay signal was generated through a single addition of 12.5 or 15 μL (50% v/v) of PathHunter Detection reagent cocktail for agonist and antagonist assays respectively, followed by a one hour incubation at room temperature. For some assays, activity was detected using a high sensitivity detection reagent (PathHunter Flash Kit) to improve assay performance. In these assays, an equal volume of detection reagent (25 or 30 μL) was added to the wells, followed by a one hour incubation at room temperature. Microplates were read following signal generation with a PerkinElmer Envision™ instrument for chemiluminescent signal detection.
# Compound activity was analyzed using CBIS data analysis suite (ChemInnovation, CA). For agonist mode assays, percentage activity was calculated using the following Formula:
# % Activity=100%×(mean RLU of test sample−mean RLU of vehicle control)/(mean MAX RLU control ligand−mean RLU of vehicle control).
# A second cell line has been further engineered to express the IL-2Rα subunit. […] The assay was run in agonist mode to determine the EC50 of each test article, and comparison of dose-response curve profiles between IL2Rα positive and negative cell types allows determination of the contribution of IL2Rα to the observed activity.
# Treg cells = assay: pSTAT5 concentration-response in human LRS-derived PBMC samples (flow cytometry): Treg cells; assay type: cell-based; conditions: Table 4; ratio of pSTAT5 EC50 values
# Procedure: These studies were performed at PrimityBio LLC (Fremont, Calif.). […] Staining panel for flow cytometry study of LRS-derived PBMC samples include markers for Effector T cells (Teff: CD3+, CD4+, CD8+, CD127+), NK cells (CD3-, CD16+), and Regulatory T cells (Treg: CD3+, CD4+, CD8-, IL-2Rα+, CD127-1).
# The EC50 values (pg/mL) was calculated from dose response curves generated from MFI plots.
# These studies were performed at PrimityBio LLC (Fremont, Calif.). […] Staining panel for flow cytometry study of LRS-derived PBMC samples include markers CD4, CD4+ memory central, CD4+ memory effect, CD4+ memory T cells, CD4+ Naive T cells, CD4+ T cells, CD8, CD8+ memory central, CD8+ memory effect, CD8+ memory T cells, CD8+ Naive T cells, CD8+ T cells, NK cells, and T regulatory cells.
# Conjugates of Table 12 were synthesized by modification of SEQ NO. 1. These studies were performed at PrimityBio LLC (Fremont, Calif.).
# The EC50 values (pg/ml) were calculated from dose response curves generated from the MFI plots.
# CTLL-2 = CTLL-2 proliferation; assay type: cell-based; conditions: Table 4
# [2] = tested on: pSTAT5 and proliferation in CD8+ T, NK and Treg cells; assay: Pharmacodynamics in peripheral blood compartment (pSTAT5, Ki-67, cell counts), Example 5; assay type: in vivo, C57BL/6 mice; conditions: mice
# Description: (§1) Terminal blood samples were collected via cardiac puncture at the points indicated. […] Plasma and blood cells (in both studies) and tumors in study E3826-U1803 were collected for PK and PD analyses.
# STAT5 phosphorylation and induction of cell proliferation (the early molecular marker Ki-67 and cell counts) was used as pharmacodynamics readouts to assess the pharmacological profile of P65_30kD relative to its pharmacokinetics.
# [3] = Plasma and tumor PK study E3826-U1803 in B16-F10 tumor-bearing C57BL/6 mice; assay type: in vivo
# Procedure: as §1
# Bioanalysis of plasma samples was performed using a qualified human IL-2 ELISA assay (Abcam, Cambridge, UK). Concentrations of Aldesleukin, E62_30kD and P65_30kD and the internal standard in samples derived from plasma were determined using an ELISA assay. […] The PK data were imported into Phoenix WinNonlin v6.4 (Certara/Pharsight, Princeton, N.J.) for analysis. The group mean plasma concentration versus time data were analyzed with noncompartmental methods using an IV bolus administration model.
# The tail end of the curves cross showing the plasma eliminates faster than the tumor (data not shown).
# [4] = B16-F10 tumor-bearing C57BL/6 female mice, 3 mg/kg single IV dose
substance,measurement,setting,value
P65_30kD: SEQ ID NO: 25: IL-2 (SEQ ID NO: 4) with P65 replaced by AzK click-conjugated to methoxy linear 30 kDa PEG [Compound P65_30kD],βγ/αβγ ratio,[1],5
same,CD8/Treg ratio,Treg cells,2.8
same,"EC50, CTLL-2 proliferation",CTLL-2,"677,198 pg/mL"
same,"proliferative responses of CD8+ effector T cells and NK cells (not Tregs), time window",[2],72 to 120 h
same,"persistent elevation of pSTAT5 in NK and CD8+ T cells, up to",[2]; single IV dose,up to 72 h
same,"persistent elevation of pSTAT5 in Tregs, up to",[2]; single IV dose,up to 24 h
same,tumor:plasma AUC ratio,[3]; 1 mg/kg dose,9.7%
same,tumor:plasma AUC ratio,[3]; 3 mg/kg dose,8.4%
same,"AUC0-t, Plasma",[3]; [4],"656,000 h*ng/mL"
same,"AUC0-t, Tumor",[3]; [4],55200 ng·h/mL
same,"AUCINF, Plasma",[3]; [4],"656,000 h*ng/mL"
same,"AUCINF, Tumor",[3]; [4],55200 ng·h/mL
same,"Cmax, Plasma",[3]; [4],40000 ng/mL
same,"Cmax, Tumor",[3]; [4],1550 ng/mL
same,"Tmax, Plasma",[3]; [4],*2.00 h
same,"Tmax, Tumor",[3]; [4],8 h
same,"t½, Plasma",[3]; [4],12.6 h
same,"t½, Tumor",[3]; [4],24.4 h
